Experimental data reported in article PMC2883556 (PLoS ONE, 2010).

Legend:
[1] = target: T1, BoNT/B GST-fusion peptide fragment H5 (Clostridium botulinum Okra / Type B1, UniProt B1INP5); assay: ELISA; settings: one partner purified
T1 construct: Cloned in pGS-21a; not shown: GST, N-terminal, kept

[2] = target: T2, BoNT/B GST-fusion peptide fragment Hc (Clostridium botulinum strain Okra / …, UniProt B1INP5); assay: ELISA; settings: one partner purified
T2 construct: Cloned in pGS-21a; not shown: GST, N-terminal, kept

[3] = target: T3, BoNT/B GST-fusion peptide fragment L2 (Clostridium botulinum strain Okra / …, UniProt B1INP5); assay: ELISA; settings: one partner purified
T3 construct: Cloned in pGS-21a; not shown: GST, N-terminal, kept

[4] = target: T4, BoNT/B GST-fusion peptide fragment H3 (Clostridium botulinum strain Okra / …, UniProt B1INP5); assay: ELISA; settings: one partner purified
T4 construct: Cloned in pGS-21a; not shown: GST, N-terminal, kept

[5] = target: T5, BoNT/B GST-fusion peptide fragment H1 (Clostridium botulinum strain Okra / …, UniProt B1INP5); assay: ELISA; settings: one partner purified
T5 construct: not shown: GST, N-terminal, kept

[6] = target: T6, Botulinum neurotoxin serotype D (Clostridium botulinum, UniProt P19321); assay: ELISA; settings: both partners purified
T6 construct: source: bought: Metabiologics

[7] = target: T7, Botulinum neurotoxin serotype C (Clostridium botulinum, UniProt P18640); assay: ELISA; settings: both partners purified
T7 construct: source: bought: Metabiologics

[8] = target: T8, BoNT/B GST-fusion peptide fragment H2 (Clostridium botulinum strain Okra / …, UniProt B1INP5); assay: ELISA; settings: one partner purified
T8 construct: not shown: GST, N-terminal, kept

[9] = target: T9, BoNT/B GST-fusion peptide fragment L1 (Clostridium botulinum strain Okra / …, UniProt B1INP5); assay: ELISA; settings: one partner purified
T9 construct: not shown: GST, N-terminal, kept

[10] = target: T10, BoNT/B GST-fusion peptide fragment H4 (Clostridium botulinum strain Okra / …, UniProt B1INP5); assay: ELISA; settings: one partner purified
T10 construct: not shown: GST, N-terminal, kept

[11] = target: T11, BoNT/B GST-fusion peptide fragment Lc (Clostridium botulinum Okra / Type B1, UniProt B1INP5); assay: ELISA; settings: one partner purified
T11 construct: not shown: GST, N-terminal, kept

[12] = target: T4, BoNT/B GST-fusion peptide fragment H3; assay: ELISA; settings: one partner purified; remark: listed apart in the source
[13] = target: BoNT/B heavy chain (band of the reduced holotoxin) (Clostridium botulinum Okra / Type B1, UniProt B1INP5); assay: far-Western, overlay or dot blot; settings: both partners purified

Binder | binding result [1] | binding result [2] | binding result [3] | binding result [4] | binding result [5] | binding result [6] | binding result [7] | binding result [8] | binding result [9] | binding result [10] | binding result [11] | binding result [12] | binding result [13]
monoclonal antibody MCS6-27 (antibody, V domains shown, also called mAb MCS6-27) VH: EVQLEQSGPGLVKPSQSLSLTCTVTGYSITNDYAWNWIRQFPGNKLEWMGYINYSGTTSYNPSLKSRISITRDTSKNQFFLQFNSVTTEDTATYYCARSPLAYWGQGTLVTVSA VL: DIVLTQTPASLSVSVGETVTITCRASENIYSHLAWYQQKQGKSPQLLVYTATNLADGVPSRFSGRGSGTQYSLKINSLQSEDFGIYFCQHFWGTPWTFGGGTKLEIK | binds | binds | no binding | no binding | no binding | no binding (tested: 10 µg/mL) | no binding (tested: 10 µg/mL) | no binding | no binding | no binding | no binding |  | 
monoclonal antibody F29-40 (antibody, V domains shown, also called mAb F29-40) VH: EVQLEESGPELVKPGTSVKISCKASGYSFTGYIINWVMQSQGKTPEWIGRINPNNGDTSYNQKFKGKATLTVDRSSSTAHMEVRSLTSEDSAVYYCARTGFGYWGQGTLVTVSA VL: DIVITQTPASLAVSLGQRATISCRASESINYYGTNLLQWYQQKPGQPPKLLIYAASNVESGVPARFSGSGSGTDFSLNIHPVEEDDIAMYFCQQSRKVPFTFGSGTRLEIK | binds | binds | no binding |  | no binding | no binding (tested: 10 µg/mL) | no binding (tested: 10 µg/mL) | no binding | no binding | no binding | no binding | binds | binds
